Laboratory results taken from paper PMC11839208 (2025).

Target: Concanavalin A (Canavalia ensiformis, UniProt P02866)
Experiment: spectral shift (thermal shift in results)

Chain of Concanavalin A (P02866 30-148, chain 1 of 2): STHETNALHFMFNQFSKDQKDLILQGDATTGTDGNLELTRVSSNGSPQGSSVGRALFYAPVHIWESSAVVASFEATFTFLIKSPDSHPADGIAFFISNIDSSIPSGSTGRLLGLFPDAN
Chain of Concanavalin A (P02866 164-281, chain 2 of 2): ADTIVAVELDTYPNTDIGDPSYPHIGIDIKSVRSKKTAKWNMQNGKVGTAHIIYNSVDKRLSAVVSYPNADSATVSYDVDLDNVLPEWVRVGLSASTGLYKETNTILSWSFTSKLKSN

B1: FimA (protein)
chain: AATTVNGGTVHFKGEVVNAACAVDAGSVDQTVQLGQVRTASLAQEGATSSAVGFNIQLNDCDTNVASKAAVAFLGTAIDAGHTNVLALQSSAAGSATNVGVQILDRTGAALTLDGATFSSETTLNNGTNTIPFQARYFATGAATPGAANADATFKVQYQ
Kd: ~40 µM
